From patent US20170210819A1 come the findings set out here.

The term Kd denotes the constant that tells how readily two partners part at equilibrium. The term koff denotes a measure of how fast the partners let go of each other. By kon is commonly meant a measure of how fast the partners come together.

The target of assay [1] is EGFR (human) (UniProt P00533). Description: flow cytometry on PCI-30 cells; main peak between 10^2 and 10^3 with a tail toward the control; 'No antibody' panel shows 13.1. In general terms: A flow cytometer gives signals particle by particle.
For assay [2], the target named is EGFR (human) (UniProt P00533). Description: flow cytometry on HeLa cells; histogram shifted to between 10^2 and 10^3; 'No antibody' panel shows 5.56.
Assay [3] deals with EGFR (human) (UniProt P00533). Description: flow cytometry on U2OS cells; histogram shifted to between 10^1 and 10^2, partly overlapping the control; 'No antibody' panel shows 6.17.
For the next assay, the target named is antigen CD3 (Biacore). The experiment in a line: SPR (Biacore), antigen CD3. A general note: Surface plasmon resonance follows binding to a sensor surface in real time, without labels.

In the case of EGFR 528 (phb 704) (antibody), the MFI with EGFR (human) [1] worked out at 388; with EGFR (human) [2], 586; with EGFR (human) [3], 26.8.

B1: huOKT3 IgG1-aGlyco (antibody, V domains shown)
VH: QVQLVQSGGGVVQPGRSLRLSCKASGYTFTRYTMHWVRQAPGKGLEWIGYINPSRGYTNYNQKFKDRFTISRDNSKNTAFLQMDSLRPEDTGVYFCARYYDDHYCLDYWGQGTPVTVSS
VL: DIQMTQSPSSLSASVGDRVTITCSASSSVSYMNWYQQTPGKAPKRWIYDTSKLASGVPSRFSGSGSGTDYTFTISSLQPEDIATYYCQQWSSNPFTFGQGTKLQITR
On to B1, for which, in the assay with antigen CD3 (Biacore), the Kd came to 64.6 nM, the koff worked out at 0.109 s⁻¹ and the kon was 1.68e+06 M⁻¹ s⁻¹.
